Series [1] addresses poly-ubiquitinated PLZF/RARA immunoprecipitated from HEK-293T cells expressing Flag-tagged PLZF/RARA and Myc-tagged Ub.
The next series deals with T1, Flag-tagged USP37 (human, UniProt Q86T82 1-979).
T1 construct: Expressed in transfected HEK-293T cells and tested in lysate by co-immunoprecipitation; also called Flag-USP37; USP37 WT; not shown: 3xFLAG tag from the pCMV-3xFLAG vector
T1 sequence: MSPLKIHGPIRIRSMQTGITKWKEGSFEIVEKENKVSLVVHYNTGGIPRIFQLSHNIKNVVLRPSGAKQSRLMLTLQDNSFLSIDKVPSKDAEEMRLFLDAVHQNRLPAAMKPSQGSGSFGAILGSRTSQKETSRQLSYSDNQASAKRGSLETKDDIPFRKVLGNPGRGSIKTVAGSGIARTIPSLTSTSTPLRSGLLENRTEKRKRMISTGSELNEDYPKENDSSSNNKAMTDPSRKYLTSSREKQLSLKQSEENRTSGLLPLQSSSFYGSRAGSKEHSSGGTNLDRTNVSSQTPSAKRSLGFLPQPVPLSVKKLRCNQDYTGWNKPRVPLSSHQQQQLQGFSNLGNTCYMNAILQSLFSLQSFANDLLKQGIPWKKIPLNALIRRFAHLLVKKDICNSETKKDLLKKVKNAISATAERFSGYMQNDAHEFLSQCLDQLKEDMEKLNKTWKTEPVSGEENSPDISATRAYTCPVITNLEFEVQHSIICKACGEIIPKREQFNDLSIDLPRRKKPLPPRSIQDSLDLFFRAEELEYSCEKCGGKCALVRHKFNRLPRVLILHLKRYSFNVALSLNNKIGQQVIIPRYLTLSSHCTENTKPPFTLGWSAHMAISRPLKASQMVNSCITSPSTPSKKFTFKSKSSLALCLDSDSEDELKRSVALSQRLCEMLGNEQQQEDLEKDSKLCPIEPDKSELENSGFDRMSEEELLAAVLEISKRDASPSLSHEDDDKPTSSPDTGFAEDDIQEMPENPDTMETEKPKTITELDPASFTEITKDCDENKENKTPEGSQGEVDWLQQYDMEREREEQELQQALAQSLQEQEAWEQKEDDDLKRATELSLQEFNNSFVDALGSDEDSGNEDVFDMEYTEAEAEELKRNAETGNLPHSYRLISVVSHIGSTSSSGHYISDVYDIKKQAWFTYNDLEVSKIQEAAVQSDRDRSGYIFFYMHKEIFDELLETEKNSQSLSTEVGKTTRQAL
As to the kind of experiment: co-immunoprecipitation from transfected HEK-293T cells.

Numbering of substitutions follows the chain as printed. Names and notes keep the numbering of the source.

B1: MBP-fused USP37 recombinant protein (protein)
chain: T1 sequence
For B1, the “in vitro deubiquitination of poly-ubiquitinated PLZF/RARA (immunoblot)” value in series [1] is listed as “the recombinant USP37 WT but not CA mutant could deubiquitinate PLZF/RARA in vitro”.

B2: recombinant USP37 CA mutant (USP37 C350A) (protein)
chain: T1 sequence with C350A
As for B2, the “in vitro deubiquitination of poly-ubiquitinated PLZF/RARA (immunoblot)” value in series [1] was “the recombinant USP37 WT but not CA mutant could deubiquitinate PLZF/RARA in vitro”.

B3: HA-tagged RARA (receptor, UniProt P10276 1-462, looked up)
chain: MASNSSSCPTPGGGHLNGYPVPPYAFFFPPMLGGLSPPGALTTLQHQLPVSGYSTPSPATIETQSSSSEEIVPSPPSPPPLPRIYKPCFVCQDKSSGYHYGVSACEGCKGFFRRSIQKNMVYTCHRDKNCIINKVTRNRCQYCRLQKCFEVGMSKESVRNDRNKKKKEVPKPECSESYTLTPEVGELIEKVRKAHQETFPALCQLGKYTTNNSSEQRVSLDIDLWDKFSELSTKCIIKTVEFAKQLPGFTTLTIADQITLLKAACLDILILRICTRYTPEQDTMTFSDGLTLNRTQMHNAGFGPLTDLVFAFANQLLPLEMDDAETGLLSAICLICGDRQDLEQPDRVDMLQEPLLEALKVYVRKRRPSRPHMFPKMLMKITDLRSISAKGAERVITLKMEIPGSMPPLIQEMLENSEGLDTLSGQPGGGGRDGGGLAPPPGSCSPSLSPSSNRSSPATHSP
notes: Expressed in transfected HEK-293T cells; not shown: HA tag
As for B3, the binding result with Flag-tagged USP37 is on record as “no binding”.

(Values after patent US20150148403A1 (ACADEMIA SINICA, published 2015).)
